This note sets out measurements from patent publication US20090208447A1 (MEDIGENE, published 2009).

Substitutions are numbered along the chain they refer to.

B1: soluble truncated variant of the Wild-Type ILT-2 molecule (extracellular domains D1 and D2) (receptor)
chain: MGHLPKPTLWAEPGSVITQGSPVTLRCQGGQETQEYRLYREKKTAPWITRIPQELVKKGQFPIPSITWEHAGRYRCYYGSDTAGRSESSDPLELVVTGAYIKPTLSAQPSPVVNSGGNVTLQCDSQVAFDGFILCKEGEDEHPQCLNSQPHARGSSRAIFSVGPVSPSRRWWYRCYAYDSNSPYEWSLPSDLLELLVL
notes: also called soluble wild-type ILT-2 polypeptide; soluble two domain form of the wild-type ILT-2
B2: SEQ ID NO 50 (receptor)
chain: B1 chain with A99I, I101K, K102A, S168G
B3: SEQ ID NO 57 (receptor)
chain: B1 chain with Q19L, S21Q, A99I, I101L, K102A
B4: SEQ ID NO 53 (receptor)
chain: B1 chain with A99I, I101L, K102Q, S168G
B5: SEQ ID NO 55 (receptor)
chain: B1 chain with A99I, I101Q
B6: SEQ ID NO 56 (receptor)
chain: B1 chain with Q19M, G20D, S21Q, A99I, I101L, K102A
B7: SEQ ID NO 48 (receptor)
chain: B1 chain with Y77Q, Y78G, G79V, D81Q, A99V
B8: SEQ ID NO 51 (receptor)
chain: B1 chain with A99I, I101Q, K102R, S168G
B9: SEQ ID NO 58 (receptor)
chain: B1 chain with Q19M, G20D, S21Q, A83S, G84Q, R85W, E87A, A99I, I101L, K102A
B10: SEQ ID NO 49 (receptor)
chain: B1 chain with W47Q, A99V, I101V, K102A, S168G
B11: SEQ ID NO 54 (receptor)
chain: B1 chain with A99I, I101K, K102Q, S168G
B12: SEQ ID NO 59 (receptor)
chain: B1 chain with Q19L, S21Q, A83S, G84Q, R85W, E87A, A99I, I101L, K102A
B13: SEQ ID NO 52 (receptor)
chain: B1 chain with A99I, I101Q, K102A, S168G
B14: SEQ ID NO 60 (receptor)
chain: MGHLPKPTLWAEPGSVITMDQPVTLRCQGGQETQEYRLYREKKTAPWITRIPQELVKKGQFPIPSITWEHAGRYRCIGRSQTSQWSASSDPLELVVTGIYLAPTLSAQPSPVVNSGGNVTLQCDSQVAFDGFILCKEGEDEHPQCLNSQPHARGSSRAIFSVGPVSPSRRWWYRCYAYDSNSPYEWSLPSDLLELLVL
B15: SEQ ID NO 61 (receptor)
chain: B14 chain with M19L, D20G
B16: SEQ ID NO 76 (receptor)
chain: MGHLPKPTLWAEPGSVITMDQPVTLRCQGGQETQQYRLYREKKTAPWITRIPQELVKKGQFPIPSITWEHAGRYRCYYGSDTRQWSASSDPLELVVTGVYIKPTLSAQPSPVVNSGGNVTLQCDSQVAFDGFILCKEGEDDHPQCLNSQPHARGSSRAIFSVGPVSPSRRWRYRCYAYDSNSPYEWSLPSDLLELDVDG
B17: SEQ ID NO 62 (receptor)
chain: MHLPKPTLWAEPGSVITMDQPVTLRCQGGQETQEYRLYREKKTAPWITRIPQELVKKGQFPIPSITWEHAGRYRCYYGSDTSQWSASSDPLELVVTGVYIKPTLSAQPSPVVNSGGNVTLQCDSQVAFDGFILCKEGEDEHPQCLNSQPHARGSSRAIFSVGPVSPSRRWWYRCYAYDSNSPYEWSLPSDLLELDVDG
B18: SEQ ID NO 79 (receptor)
chain: B17 chain with L187D
B19: SEQ ID NO 78 (receptor)
chain: B17 chain with I158E
B20: SEQ ID NO 67 (receptor)
chain: B17 chain with M18L, D19G, Q20S
B21: SEQ ID NO 69 (receptor)
chain: B17 chain with M18L, D19Q, Q20S
B22: SEQ ID NO 68 (receptor)
chain: B17 chain with M18L, D19R, Q20S
B23: SEQ ID NO 80 (receptor)
chain: B17 chain with C134S, C144S
B24: SEQ ID NO 63 (receptor)
chain: B17 chain with W171R
B25: SEQ ID NO 71 (receptor)
chain: B17 chain with S79T, D80Q, S82A, Q83G, W84R, A86E
B26: SEQ ID NO 75 (receptor)
chain: B17 chain with S79T, D80Q
B27: SEQ ID NO 70 (receptor)
chain: B17 chain with M18L, D19E, Q20S
B28: SEQ ID NO 65 (receptor)
chain: B17 chain with K41R
B29: SEQ ID NO 73 (receptor)
chain: B17 chain with Y76V, Y77I, G78Q, S79R, D80G, S82A, Q83G, W84R, A86E
B30: SEQ ID NO 72 (receptor)
chain: B17 chain with Y76M, Y77Q, G78Y, S79T, D80L, S82A, Q83G, W84R, A86E
B31: SEQ ID NO 77 (receptor)
chain: B17 chain with L145D
B32: SEQ ID NO 74 (receptor)
chain: B17 chain with S79G, D80Q, T81E, S82G, Q83A, W84R, A86E
B33: SEQ ID NO 66 (receptor)
chain: B17 chain with M18L, D19G
B34: SEQ ID NO 64 (receptor)
chain: B17 chain with R49L, E140G, R173W

One assay deals with T1, HLA-A*0201 loaded with the Carcinoembryonic antigen (CEA)-derived … peptide (biotinylated on the C-terminal biotinylation tag). As to the kind of experiment: SPR (Biacore), method of Example 4.
Consider B1, for which the off-rate (koff) was determined as 2.4 s⁻¹.

The next assay concerns the target T1, HLA-A*0201 loaded with the …. As to the kind of experiment: SPR (Biacore), Example 4.
As for B2, the dissociation constant (Kd) is ≤ 1000 nM and the koff was ≤ 2 s⁻¹.

As to B3, the dissociation constant (Kd) was ≤ 1000 nM and the koff is ≤ 2 s⁻¹.

Take B4: the dissociation constant (Kd) was ≤ 1000 nM and the koff was ≤ 2 s⁻¹.

B5: the Kd was ≤ 1000 nM and the koff was ≤ 2 s⁻¹.

On to B6, for which the Kd was ≤ 1000 nM and the koff was ≤ 2 s⁻¹.

As for B7, the equilibrium dissociation constant (Kd) was ≤ 1000 nM and the off-rate constant (koff) was ≤ 2 s⁻¹.

For B8, the Kd is ≤ 1000 nM and the koff was ≤ 2 s⁻¹.

As to B9, the dissociation constant Kd is ≤ 1000 nM and the dissociation rate constant (koff) is ≤ 2 s⁻¹.

For B10, the Kd was ≤ 1000 nM and the off-rate constant (koff) was ≤ 2 s⁻¹.

Regarding B11, the dissociation constant Kd was ≤ 1000 nM and the koff is ≤ 2 s⁻¹.

Consider B12, for which the Kd is ≤ 1000 nM and the off-rate constant (koff) was ≤ 2 s⁻¹.

In the case of B13, the Kd was ≤ 1000 nM and the koff is ≤ 2 s⁻¹.

As to B14, the Kd was ≤ 1000 nM and the koff is ≤ 2 s⁻¹.

As for B15, the dissociation constant (Kd) is ≤ 1000 nM and the koff is ≤ 2 s⁻¹.

For the molecule B16, the dissociation constant (Kd) was ≤ 1000 nM and the dissociation rate constant (koff) was ≤ 2 s⁻¹.

Turning to B17, the Kd is ≤ 1000 nM and the koff was ≤ 2 s⁻¹.

As to B18, the Kd was ≤ 1000 nM and the koff was ≤ 2 s⁻¹.

With B19, the equilibrium dissociation constant (Kd) is ≤ 1000 nM and the koff is ≤ 2 s⁻¹.

For the molecule B20, the Kd is ≤ 1000 nM and the dissociation rate constant (koff) is ≤ 2 s⁻¹.

For B21, the Kd was ≤ 1000 nM and the koff is ≤ 2 s⁻¹.

For B22, the equilibrium dissociation constant (Kd) was ≤ 1000 nM and the koff is ≤ 2 s⁻¹.

As to B23, the dissociation constant Kd was ≤ 1000 nM and the koff is ≤ 2 s⁻¹.

As for B24, the Kd was ≤ 1000 nM and the koff was ≤ 2 s⁻¹.

In the case of B25, the dissociation constant Kd was ≤ 1000 nM and the koff was ≤ 2 s⁻¹.

In the case of B26, the dissociation constant Kd was ≤ 1000 nM and the dissociation rate constant (koff) was ≤ 2 s⁻¹.

In the case of B27, the Kd was ≤ 1000 nM and the koff is ≤ 2 s⁻¹.

Take B28: the Kd was ≤ 1000 nM and the koff is ≤ 2 s⁻¹.

In the case of B29, the dissociation constant Kd is ≤ 1000 nM and the koff was ≤ 2 s⁻¹.

In the case of B30, the Kd was ≤ 1000 nM and the dissociation rate constant (koff) is ≤ 2 s⁻¹.

As to B31, the Kd is ≤ 1000 nM and the koff was ≤ 2 s⁻¹.

Take B32: the Kd was ≤ 1000 nM and the koff is ≤ 2 s⁻¹.

As for B33, the Kd is ≤ 1000 nM and the off-rate constant (koff) is ≤ 2 s⁻¹.

On to B34, for which the dissociation constant (Kd) was ≤ 1000 nM and the dissociation rate constant (koff) was ≤ 2 s⁻¹.

For a further assay the target is unchanged. The assay is described as follows: SPR (Biacore 3000), biotinylated pMHC immobilised on streptavidin.
Take B1: the Kd was ~6000 nM.
